Results: US20240010721A1 (HARBOUR BIOMED SHANGHAI, published 2024)
Where two headings read alike, the source gives them in different places.

Tests used:
[1] = target: T1, human ROR1 (hROR1) on cells (human, UniProt Q01973 30-937); test: FACS, A549 cells
T1 construct: whole, on cells; the cell line is named under assay; also called HEK293T-hROR1; 293T-hROR1
Description: (§1) The binding properties were characterized by FACS. The recombinant antibodies obtained above were serially diluted to 9 different concentrations and incubated for 1 h, and then determined for the binding ability with HEK293T-hROR1, CHO-K1-cynoROR1 and A549 cell lines (endogenously expressing ROR1), respectively. The secondary antibody was then incubated for 1 h. The results are shown in FIG. 4-6 and Table 7-2 below.

[2] = target: T1, human ROR1 (hROR1) on cells; test: cell-based or functional assay
[3] = target: T1, human ROR1 (hROR1) on cells; test: cell-based or functional assay; remark: listed apart in the source
[4] = target: T2, cynomolgus ROR1 (cynoROR1) on CHO-K1 cells (cynomolgus, UniProt A0A2K5WTX7 30-937); test: FACS, CHO-K1-cynoROR1 cells
T2 construct: whole, on cells; also called CHO-K1-cynoROR1; CHO-K1-cyROR1
Description: as §1

Human ROR1-ECD-his = target: T3, Human ROR1-ECD-his (human, UniProt Q01973 30-406); test: ELISA, plate coated with hROR1 ECD-his
T3 construct: extracellular domain; bought, Acrobiosystems RO1-H522y; also called hROR1-ECD-his; hROR1 ECD-his
T3 sequence (Q01973 30-406): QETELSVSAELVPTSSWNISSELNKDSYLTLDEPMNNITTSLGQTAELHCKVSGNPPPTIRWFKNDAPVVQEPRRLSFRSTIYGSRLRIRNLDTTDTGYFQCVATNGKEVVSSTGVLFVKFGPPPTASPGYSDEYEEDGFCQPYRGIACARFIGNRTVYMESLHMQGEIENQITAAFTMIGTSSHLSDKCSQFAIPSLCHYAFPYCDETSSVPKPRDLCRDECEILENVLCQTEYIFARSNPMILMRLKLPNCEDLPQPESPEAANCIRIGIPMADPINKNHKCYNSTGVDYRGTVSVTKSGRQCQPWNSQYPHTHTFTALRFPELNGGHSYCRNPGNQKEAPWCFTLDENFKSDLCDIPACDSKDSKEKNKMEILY

hROR2ECD-his = target: T4, hROR2ECD-his (human, UniProt Q01974 34-403); test: ELISA, plate coated with hROR2 ECD-his
T4 construct: extracellular domain; bought, Acrobiosystems R02-H52E5; also called huROR2-his
T4 sequence (Q01974 34-403): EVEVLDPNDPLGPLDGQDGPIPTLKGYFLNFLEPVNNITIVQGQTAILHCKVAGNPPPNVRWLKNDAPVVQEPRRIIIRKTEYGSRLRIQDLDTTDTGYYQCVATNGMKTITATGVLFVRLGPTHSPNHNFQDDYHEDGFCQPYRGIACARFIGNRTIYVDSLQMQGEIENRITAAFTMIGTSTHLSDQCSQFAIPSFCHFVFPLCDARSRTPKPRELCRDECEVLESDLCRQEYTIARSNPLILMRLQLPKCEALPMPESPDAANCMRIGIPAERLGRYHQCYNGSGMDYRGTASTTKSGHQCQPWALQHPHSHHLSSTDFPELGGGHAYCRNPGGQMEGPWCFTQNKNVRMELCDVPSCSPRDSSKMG

[5] = target: ROR1 (antigen of the KD determination and of the Octet dissociation measurement) (UniProt Q01973 30-403, limits assumed); test: method not stated (conventional procedures)
Sequence of ROR1 (antigen of the KD determination and of the Octet dissociation measurement) (Q01973 30-403 limits assumed): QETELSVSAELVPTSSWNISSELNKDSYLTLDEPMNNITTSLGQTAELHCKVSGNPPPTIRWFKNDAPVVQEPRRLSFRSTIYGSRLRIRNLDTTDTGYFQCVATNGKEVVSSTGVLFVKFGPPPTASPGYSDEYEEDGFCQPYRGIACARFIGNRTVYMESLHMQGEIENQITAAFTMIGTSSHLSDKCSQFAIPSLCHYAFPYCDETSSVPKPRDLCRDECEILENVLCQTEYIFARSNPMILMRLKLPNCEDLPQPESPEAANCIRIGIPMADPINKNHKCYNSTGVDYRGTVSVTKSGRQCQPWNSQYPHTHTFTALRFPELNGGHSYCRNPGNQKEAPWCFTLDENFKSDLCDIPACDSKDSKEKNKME

[6] = target: T1, human ROR1 (hROR1) on cells; test: FACS, HEK293T-hROR1 cells; cytometer saturated
Description: as §1

[7] = target: T1, human ROR1 (hROR1) on cells; test: flow cytometry (FACS) on HEK293T-hROR1 cells, antibody 0.01-100 nM, median fluorescence intensity
Description: as §1

[8] = target: T2, cynomolgus ROR1 (cynoROR1) on CHO-K1 …; test: flow cytometry (FACS) on CHO-K1-cynoROR1 cells, antibody 0.01-100 nM, median fluorescence intensity
Description: as §1

[9] = target: T2, cynomolgus ROR1 (cynoROR1) on CHO-K1 …; test: as above; remark: listed apart in the source
Description: as §1

[10] = target: T1, human ROR1 (hROR1) on cells; test: flow cytometry (FACS) on A549 cells (endogenous ROR1), antibody 0.01-100 nM, median fluorescence intensity
Description: as §1

T1 sequence (Q01973 30-937): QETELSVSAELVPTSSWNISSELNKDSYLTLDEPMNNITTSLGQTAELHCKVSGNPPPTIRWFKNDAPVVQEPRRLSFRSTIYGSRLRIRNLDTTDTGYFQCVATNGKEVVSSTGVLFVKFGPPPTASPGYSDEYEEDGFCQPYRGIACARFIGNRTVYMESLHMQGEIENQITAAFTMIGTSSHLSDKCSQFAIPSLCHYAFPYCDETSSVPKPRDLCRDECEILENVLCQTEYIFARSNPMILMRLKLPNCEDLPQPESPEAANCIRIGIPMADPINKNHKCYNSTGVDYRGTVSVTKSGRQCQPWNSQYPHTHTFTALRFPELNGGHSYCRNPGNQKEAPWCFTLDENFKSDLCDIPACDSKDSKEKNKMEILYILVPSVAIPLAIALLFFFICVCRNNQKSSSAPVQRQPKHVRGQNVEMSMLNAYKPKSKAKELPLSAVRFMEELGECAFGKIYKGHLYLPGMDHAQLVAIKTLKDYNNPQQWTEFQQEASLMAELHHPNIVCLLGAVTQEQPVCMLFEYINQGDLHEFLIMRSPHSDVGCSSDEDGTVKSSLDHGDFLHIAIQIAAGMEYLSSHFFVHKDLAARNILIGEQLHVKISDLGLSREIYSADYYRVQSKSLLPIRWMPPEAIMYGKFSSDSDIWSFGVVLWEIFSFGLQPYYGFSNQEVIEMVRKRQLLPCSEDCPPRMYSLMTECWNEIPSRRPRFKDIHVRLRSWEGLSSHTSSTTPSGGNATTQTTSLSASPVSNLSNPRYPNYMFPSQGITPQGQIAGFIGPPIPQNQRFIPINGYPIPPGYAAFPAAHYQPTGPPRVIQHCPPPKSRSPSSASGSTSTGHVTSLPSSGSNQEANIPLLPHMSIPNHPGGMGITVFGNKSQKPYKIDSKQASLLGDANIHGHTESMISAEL

- MAX(MFI) [1]: 3850 MFI
- MAX(MFI) [4]: 31900 MFI
- ELISA signal (called MFI) (Human ROR1-ECD-his): 2.48
- ELISA signal (called MFI) (hROR2ECD-his): 0.022
- Kd [5]: 0.397 nM
- koff [5]: 0.000173 s⁻¹
- kon [5]: 437000 M⁻¹ s⁻¹
- MAX(MFI) [6]: 262000 MFI
- EC50 (read off the curve) [7]: ~9 nM
- EC50 (read off the curve) [8]: ~3 nM
- EC50 (read off the curve) [9]: ~5 nM
- EC50 (read off the curve) [10]: ~3 nM
B1: Positive control antibody (PR000374) (antibody, human IgG1, kappa, V domains shown)
VH: EVQLVESGGGLVQPGRSLRLSCTASGSDINDYPITWVRQAPGQGLEWIGFINSGGSTWYASWVKGRFTISRDDSKSIAYLQMNSLKTEDTAVYYCARGYSTYYRDFNIWGQGTLVTVSS
VL: DIQMTQSPSSLSASVGDRVTINCQASQSIDSNLAWFQQKPGQPPKLLIYRASNLASGVPDRFSGSGSGTDFTLTISSLEAEDVATYYCLGGVGAVSYRTSFGGGTKVEIKR
- endocytosis EC50(nM) (a-hFc-MMAF killing, CTG luminescence) [2]: 0.243 nM
- ADCC Cytotoxicity (%), Donor 1, 1 nM [3]: 14.4%
- ADCC Cytotoxicity (%), Donor 1, 10 nM [3]: 25.4%
- ADCC Cytotoxicity (%), Donor 2, 1 nM [3]: 11.4%
- ADCC Cytotoxicity (%), Donor 2, 10 nM [3]: 18.2%
